In publication PMC6598175 one finds Km data, which are given here for one protein.

Substrate in the series: Cc1cc(=O)oc2cc(O[C@@H]3OC[C@@H](O[C@@H]4OC[C@@H](O)[C@H](O)[C@H]4O)[C@H](O)[C@H]3O)ccc12
In words: Substrate hydrolysis kinetics. In kind it is biochemical, A. aculeatus. To be noted: other: fluorogenic 4MU substrate, pH 5.0.

B1: …_127619 (Aspergillus aculeatus ATCC 16872) (protein)
chain: VGLDQAAVAKGLQYFGTATDNPELTDIPYVTQLNNTADFGQITPGNSMKWDATEPSQGTFTFTNGDVIADLAEGNGQYLRCHTLVWYNQLPSWVTSGTWTNATLTAALKNHITNVVSHYKGKCLHWDVVNEALNDDGTYRTNIFYTTIGEAYIPIAFAAAAAADPDAKLFYNDYNLEYGGAKAASARAIVQLVKNAGAKIDGVGLQAHFSVGTVPSTSSLISVLQSFTALGVEVAYTEADVRILLPTTATTLAQQSSDFQALVQSCVQTTGCVGFTIWDWTDKYSWVPSTFSGYGAALPWDENLVKKPAYNGLLAG
Turning to B1, the Km came out at 279 µM.

By Km is commonly meant the concentration of substrate that gives half-maximal velocity.
